Data reported in publication PMC5384453, “A multi-functional PEGylated gold(III) compound: potent anti-cancer properties and self-assembly into nanostructures for drug co-delivery” (Chemical Science, 2016).

Assays:
[1] = Systemic toxicity in nude mice bearing HCT116 xenografts (body weight, H&E histopathology, blood biochemistry); format: in vivo; conditions: HCT116 xenograft nude mice
Method: The anti-tumor experiments using mice were approved by the animal ethics committees of Jinan University and The University of Hong Kong. […]
(§1) every 2 days for 24 days. The control group received equal volume of PBS only.
(§2) During the treatment period, the tumor volume and body weight of the nude mice were measured per two days. The tumor volume was calculated by the equation:
(§3) Volume (mm3) = l×w2/2, where l and w were the length and width of the tumor. At the end of the treatment, the nude mice were sacrificed and the tumor weight was […]
H&E staining and immunohistochemical (IHC) analysis of mice tissues. For […]
(§4) formaldehyde, embedded with paraffin and sectioned. Subsequently, the tissues were stained with hematoxylin and eosin for histological observation under an optical microscope (magnification: 10×). The expression of p53, Ki67, VEGFR2 and TUNEL was determined by IHC methods as reported previously. S7
(§5) Hematological analysis of nude mice bearing HCT116 xenograft. The blood samples of mice without bearing HCT116 xenograft and xenograft-bearing mice treated with 1, 3 and PBS control were collected. The plasma was obtained by centrifuging the blood sample with speed at 3000 rpm. The plasma was then subjected to hematological analysis to determine biochemical indexes of alanine aminotransferase (ALT), asparatate aminotransferase (AST), globulin (GLB), blood urea nitrogen (BUN), uric acid (UA), creatinine (CREA), lactate dehydrogenase (LDH) and creatine kinase (CK) in blood of the mice.
A2780cis xenograft nude mice model was constructed by injecting 2.5×10^6 cells to the right back flank of female BALB/c nude mice. When the tumor volume […]
animal study. The A2780cis xenograft nude mice were randomly divided into 2 groups (n = 5 per group). 1 in PBS (4 mg/kg) or PBS solvent control were injected to the nude mice by intravenous injection once every 2–3 days for 13 days. During the treatment period, the tumor volume and body weight of the nude mice were measured

HCT116 xenografts = experiment: In vivo inhibition of tumor growth in nude mice bearing HCT116 xenograft; conditions: for reduction of tumor volume / reduction of tumor weight: n = 8
Excerpt: The anti-tumor experiments using mice were approved by the animal ethics committees of Jinan University and The University of Hong Kong.
Significant pulmonary hemorrhage in the alveoli and a thickening of alveolar walls were found. Also, apoptotic hepatocytes and swollen renal epithelial cells were found, leading to subsequent shrinkage of kidney tubules. […] The lower systemic toxicity of 1 can be explained by the lower accumulation of 1 in the organs of mice treated at its effective dosage, as compared to that of 3 and Au1a (Fig. S23 ^†). […] This can be attributable to the nanostructures of 1, which may lead to in vivo tumor accumulation by the EPR effect.[55] […]
atmosphere of 5% CO2. […]
right fore of BALB/c nude mice. When the tumor volume reached 70 mm3 after […]
as §1, §2, §3
as §4, with “H&E staining and immunohistochemical (IHC) analysis of mice tissues. For histological and immunohistochemical analysis, the tissues were fixed with 3.7% formaldehyde,” for “formaldehyde,”
as §5, with “mice. […]” for “mice.”

[2] = Release of hydrolyzed gold(III) porphyrin moiety in aqueous buffer solutions (dialysis, ICP-MS); format: physicochemical; conditions: for hydrolyzed product found: sodium acetate buffer pH 4, 37 °C
Method: The rate of the release of the gold(III) porphyrin moiety from the conjugates in aqueous buffer solutions at different pH values was determined according to the reported methodology.[24],[26],[27] Nanostructures of 1 and 2 were dissolved in PBS or sodium acetate buffer (pH 4.0) and then dialyzed against a large volume of PBS or sodium acetate buffer solution in the dark at 37 °C using a 1000 Da cut-off dialysis membrane (details are included in the ESI ^†). The quantity of the hydrolyzed gold(III) porphyrin moiety at different time points was determined by inductively coupled plasma mass spectrometry (ICP-MS; Fig. 2a). In PBS, 31% and 60% of 1 were hydrolyzed at 6 and 24 h, respectively, while only 2% and 3% of hydrolyzed product of 2 were found at 5 and 24 h, and more than 89% of 2 remained unhydrolyzed at 96 h. […] Faster release was also found upon incubation of 2 in pH 4 buffer solution compared to that in PBS, but the amount was still much smaller than that found in the study of 1. As the only difference between 1 and 2 is the chemical structure of the linkage for PEG conjugation, the faster release of the gold(III) porphyrin moiety from 1 in PBS than that from 2 should be attributed to the higher tendency of the ester bond in 1 to undergo hydrolytic cleavage than the amide bond in 2.[52] […]
Study on the release of hydrolyzed product from 1 and 2 in aqueous buffer solutions by ICP-MS. The nanostructures of gold(III) complex was dissolved in PBS solution (pH 7.4; 1 mg/mL) or sodium acetate buffer solution (pH 4.0; 1 mg/mL) and was dialyzed against 1 L of the buffer solution at 37 °C using semipermeable minidialysis tubes (molecular weight cut-off = 1,000 Da; GE Healthcare). At a predetermined time, an aliquot of solution was removed and dissolved in HNO3/HCl solution mixture (9:1, v/v; volume of aliquot: volume of acid mixture = 1:3). The solution mixture was heated at 65 °C with shaking overnight, and the gold content was determined by ICP-MS from three independent aliquots. […]

[3] = Zeta potential measurement of nanostructures in PBS; format: physicochemical
Excerpt: On the other hand, the almost neutral zeta potentials of the nanostructures of 1 and 2 validated the presence of PEG pendant in the shell of the nanostructures. The identity of gold species in the core of the nanostructures was supported by the good contrast of the core in the TEM images (Fig. 1c and S3a ^†) and energy-dispersive X-ray (EDX) spectra (Fig. 1f). […]
(MIHA), human normal liver cells (L02) and human normal gliocyte cells (CHEM-5) were maintained in Dulbecco’s modified Eagle’s medium with 10 vol% fetal bovine serum, ʟ-glutamine (2 mM) and penicillin/streptomycin (100 U/mL). […]
TOF/TOF™ Analyzer using α-cyano-4-hydroxycinnamic acid with sodium trifluoroacetate as the matrix. […]
Premier quadrupole time-of-flight tandem mass spectrometer. […]
Ultra performance […]
liquid chromatography (UPLC) measurements were performed on a Waters
ACQUITY UPLC H-Class System equipped with a photodiode array for detection.
Elemental analyses were performed on the Carlo Erba 1106 elemental analyzer at the Institute of Chemistry, Chinese Academy of Sciences, Beijing, China. […]
Dynamic light scattering (DLS) and zeta potential measurements were performed

[4] = 4 mg kg^–1, intravenous injection every two days for 24 days
[5] = 2 mg kg^–1, intravenous injection every two days for 24 days

Row | Compound | blood biochemistry (organ damage indicators) ([1]; 4 mg kg^–1 i.v., 24 days, ALT, GLB, BUN, CK for 1) | histopathological analysis of tissues (H&E) ([1]; i.v., 24 days (3: 4 mg kg^–1)) | reduction of tumor volume (HCT116 xenografts; [4]) | reduction of tumor weight (HCT116 xenografts; [4]) | mouse death / body weight ([1]; 2 or 4 mg kg^–1 i.v., 24 days) | hydrolyzed (release of gold(III) porphyrin moiety) ([2]; PBS, 37 °C, 6 h) | hydrolyzed (release of gold(III) porphyrin moiety) ([2]; PBS, 37 °C, 24 h) | hydrolyzed product found ([2]; 6 h) | hydrolyzed product found ([2]; 24 h) | Zeta potential [3] | reduction of tumor volume (HCT116 xenografts; [5]) | reduction of tumor weight (HCT116 xenografts; [5]) | nuclear atypia and mitosis in tumor sections (immunohistochemical analysis) (HCT116 xenografts; 4 mg kg^–1 i.v., 24 days) | hydrolyzed (release of gold(III) porphyrin moiety) ([2]; PBS, 37 °C, 5 h) | remained unhydrolyzed ([2]; PBS, 37 °C, 96 h)
1 | COC(=O)c1ccc(C2=C3C=CC(=N3)C(c3ccccc3)=c3ccc4[n]3[Au+][n]3c(ccc32)C(c2ccccc2)=C2C=CC(=N2)C=4c2ccccc2)cc1.[Cl-] [Compound 3, [Au(TPP–COOCH3)]^+] | significant damage in the lung, liver and kidney of the mice | damage in normal lung, liver and kidney tissues | 56% | 49% |  |  |  |  |  |  |  |  |  |  | 
2 | [Au(TPP–COO–PEG5000–OCH3)]Cl [Compound 1] |  |  | 58% | 53% | no mouse death or significant loss in body weight | 31% | 60% | 60% | 96% | –0.1 ± 1.6 mV | 41% | 35% | Effective elimination of nuclear atypia and mitosis were observed |  | 
3 | [Au(TPP–CONH–PEG5000–OCH3)]Cl [Compound 2] |  |  |  |  |  |  | 3% |  |  | –0.7 ± 4.2 mV |  |  |  | 2% | more than 89%
